# According to patent publication US5874308A, “Compositions and methods for modulating cell proliferation using growth factor-polysaccharide binding fusion proteins” (priority 1996, dated 1999):
# “Also recorded” adds a separate entry of the source.
# T1: N1 (CBDN1) (Cellulomonas fimi, UniProt P14090)
# T1 construct: leader (signal) peptide of C. fimi exoglucanase Cex (N); made in house; host or cells: E. coli JM101 (pTugKN1), purified from culture supernatant
# T1 sequence (P14090 33-184): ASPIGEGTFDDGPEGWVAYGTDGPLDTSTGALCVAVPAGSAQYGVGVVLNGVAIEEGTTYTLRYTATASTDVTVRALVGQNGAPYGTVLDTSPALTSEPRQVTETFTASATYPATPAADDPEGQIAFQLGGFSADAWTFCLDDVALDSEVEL
# T2: CBDN1 (Cellulomonas fimi, UniProt P14090)
# T2 construct: leader (signal) peptide of C. fimi exoglucanase Cex (N); made in house; host or cells: E. coli JM101 (pTugKN1), purified from culture supernatant
# T2 sequence (P14090 33-184): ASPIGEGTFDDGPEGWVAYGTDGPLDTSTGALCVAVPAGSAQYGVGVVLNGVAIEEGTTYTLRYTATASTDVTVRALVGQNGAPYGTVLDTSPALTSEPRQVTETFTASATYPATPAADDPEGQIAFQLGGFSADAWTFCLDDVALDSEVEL
# Columns and labels:
# [1] = target: T1, N1 (CBDN1); assay: N1 binding constants by NMR; conditions: 35° C.; read-out: NMR Ka (converted)
# [2] = target: T2, CBDN1; assay: Isothermal titration microcalorimetry of oligosaccharide binding to CBDN1; conditions: 35° C.; for Kd: 50-mM PBS, pH 7, read-out: Isothermal Titration Microcalorimetry Ka (converted)
# From the text: Microcalorimetry was used to measure binding thermodynamics for CBDN1 to a wide range of water-soluble oligosaccharides with the aim of identifying a set of suitable ligands for the affinity partition system. […] For both oligosaccharides, CBDN1 binding is as tight or even tighter than nearly all PEG-based affinity ligands (e.g., Cibacron blue-PEG, Procion red-PEG, dinitrophenyl-PEG, diacetic acid-PEG) currently in use in affinity partition systems.
# [3] = system: SLF dependent bone marrow cell line B6SUtA1; assay: MTT proliferation assay of SLF-CBD in solution or bound to BMCC; type: cell-based; conditions: for effect of presence of BMCC on activity: protein concentration varied; for distribution of activity between BMCC and supernatant: bound to 1 μg/ml BMCC, matrix removed by centrifugation and resuspended; for potency when immobilized on cellulose vs in solution (maximum proliferative response, specific activity): immobilized on cellulose (BMCC); for distribution of activity between BMCC and supernatant after Factor Xa cleavage: 1 μg/ml BMCC, Factor Xa added; for proliferative activity in solution (MTT), compared with control SLF: non-immobilized, absence of an immobilization matrix
# Procedure: Samples of purified SLF-CBD were diluted in H-SFM. […] In experiments where BMCC was used, 50 μl of a BMCC suspension in H-SFM was added to each well, and in experiments where no BMCC was used 50 μl of H-SFM alone was added.
# Statistical analysis of data was carried out with regression curve fitting in two iterations using non-linear regression analysis from the GraFit version 3.0 statistical analysis program (Erithacus Software Ltd., Staines, U.K.).
# [4] = Binding of SLF-CBD to Avicel cellulose during purification; conditions: affinity chromatography on Avicel
# Procedure: The plasmid pSLF/CBD 1.0 was transformed into E. coli JM101 (Yanisch-Perronet al. (1985) Gene 33: 103-119) for expression. Several colonies were scraped from a plate and used to inoculate a 5 ml test tube of Terrific Broth (Tartof and Hobbs, Bethesda Res. Lab. Focus 9: 12) containing […] kanamycin. This tube was incubated with shaking at 37° C. for four hours and then used to inoculate four flasks containing 500 ml of the same medium at 0.2% volume. These flasks were then incubated at 37° C. with shaking at 250 rpm until a cell culture optical density (OD550) […]. The cells were then induced by the addition of 0.1 mM IPTG and shifted to 30° C. with shaking at 100 rpm for a further eight hours. Cells were then harvested and the periplasmic proteins isolated by osmotic shock (Neu and Heppel (1965) J. Biol. Chem. 240: 3685-3692). Five mg of Avicel microcrystalline cellulose (FMC International, Cork, Ireland) was added to either 10 ml of culture supernatant or 1 ml of periplasmic extract and then removed by centrifugation. SDS-PAGE loading buffer was than added to the Avicel, which was then boiled for two minutes and loaded directly onto a gel for SDS-PAGE analysis (Laemmli, supra.) (FIG. 8A).
# [5] = system: B6SUtA cells; assay: Activity of SLF-CBD bound to regenerated cellulose coated microtiter plates (MTT); type: cell-based
# Procedure: A 1% (w/v) solution of cellulose acetate was prepared by adding one gram of cellulose acetate (Kodak Inc.) to 99 ml of acetic acid. One hundred μl of this solution was added to each well of the standard 96 well tissue culture plates used above, and the acetic acid allowed to evaporate. One hundred μl of 50 mM NaOH was then added to each well and left for 20 minutes to regenerate a cellulose surface. The NaOH was then poured out, and the wells rinsed three times with PBS. Three hundred μl of 70% (v/v) ethanol was then added to each well, the plate lid replaced, and the ethanol allowed to evaporate as a sterilization step.
# Activity tests were carried out as previously described except that a cellulose acetate derived surface was used to immobilize SLF/CBD instead of BMCC. Twenty μl protein test samples were put into cellulose coated wells. […] Activity was measured after 48 h of culture using the […] with data points collected in quadruplicate. […]
# Non-tagged SLF was used as a control. In one set of control experiments, SLF was added to cellulose coated tissue culture wells as before, the surface was seeded with fresh cells three times, and the proliferation measured. […] These surfaces were seeded with cells three times and the activity measured.
# [6] = BMCC fixed at 1 μg/ml or 14 μg/ml
molecule,measurement,setting,value
OC[C@H]1O[C@@H](O[C@H]2[C@H](O)[C@@H](O)[C@H](O[C@H]3[C@H](O)[C@@H](O)[C@H](O[C@H]4[C@H](O)[C@@H](O)[C@H](O[C@H]5[C@H](O)[C@@H](O)[C@H](O[C@H]6[C@H](O)[C@@H](O)C(O)O[C@@H]6CO)O[C@@H]5CO)O[C@@H]4CO)O[C@@H]3CO)O[C@@H]2CO)[C@H](O)[C@@H](O)[C@@H]1O (stereo partly shown) [Cellohexaose],Kd,[1],19.6 µM
same,Isothermal Titration Microcalorimetry -TΔS°,[2],3.31 ± 0.42 kJ/mol
same,Isothermal Titration Microcalorimetry ΔH°,[2],-28.9 ± 0.84 kJ/mol
same,Kd,[2],0.0397 mM
OC[C@H]1O[C@@H](O[C@H]2[C@H](O)[C@@H](O)[C@H](O[C@H]3[C@H](O)[C@@H](O)[C@H](O[C@H]4[C@H](O)[C@@H](O)[C@H](O[C@H]5[C@H](O)[C@@H](O)C(O)O[C@@H]5CO)O[C@@H]4CO)O[C@@H]3CO)O[C@@H]2CO)[C@H](O)[C@@H](O)[C@@H]1O (stereo partly shown) [Cellopentaose],Kd,[1],29.4 µM
same,Isothermal Titration Microcalorimetry -TΔS°,[2],3.6 ± 0.42 kJ/mol
same,Isothermal Titration Microcalorimetry ΔH°,[2],-28.5 ± 0.84 kJ/mol
same,Kd,[2],0.0559 mM
OC[C@H]1O[C@@H](O[C@H]2[C@H](O)[C@@H](O)[C@H](O[C@H]3[C@H](O)[C@@H](O)[C@H](O[C@H]4[C@H](O)[C@@H](O)C(O)O[C@@H]4CO)O[C@@H]3CO)O[C@@H]2CO)[C@H](O)[C@@H](O)[C@@H]1O (stereo partly shown) [Cellotetraose],Kd,[1],238 µM
same,Isothermal Titration Microcalorimetry -TΔS°,[2],5.86 ± 0.42 kJ/mol
same,Isothermal Titration Microcalorimetry ΔH°,[2],-26.8 ± 0.84 kJ/mol
same,Kd,[2],0.244 mM
OC[C@H]1O[C@@H](O[C@H]2[C@H](O)[C@@H](O)[C@H](O[C@H]3[C@H](O)[C@@H](O)C(O)O[C@@H]3CO)O[C@@H]2CO)[C@H](O)[C@@H](O)[C@@H]1O (stereo partly shown) [Cellotriose],Kd,[1],5560 µM
"control SLF: recombinant extracellular domain of murine steel factor without affinity tag (R&D systems), positive control (protein) KEICGNPVTDNVKDITKLVANLPNDYMITLNYVAGMDVLPSHCWLRDMVIQLSLSLTTLLDKFSNISEGLSNYSIIDKLGKIVDDLVLCMEENAPKNIKESPKRPETRSFTPEEFFSIFNRSIDAFKDFMVASDTSDCVLSSTLGPEKDSRVSVTKPFMLPPVAASSLRNDSSSSNRKAAKAPEDSGLQ",effect of presence of BMCC on activity,[3]; [6],no effect
same,distribution of activity between BMCC and supernatant,[3],most of the activity was in the supernatant
same,distribution of activity between BMCC and supernatant,[3]; listed as non-tagged SLF control,most of the activity was associated with the supematant
same,"potency when immobilized on cellulose vs in solution (maximum proliferative response, specific activity)",[3],not observed
SLF-CBD: fusion protein: extracellular domain of murine steel factor linked to the cellulose binding domain of Cellulomonas fimi exoglucanase Cex (protein) KEICGNPVTDNVKDITKLVANLPNDYMITLNYVAGMDVLPSHCWLRDMVIQLSLSLTTLLDKFSNISEGLSNYSIIDKLGKIVDDLVLCMEENAPKNIKESPKRPETRSFTPEEFFSIFNRSIDAFKDFMVASDTSDCVLSSTLGPEKDSRVSVTKPFMLPPVAASSLRNDSSSSNRKAAKAPEDSGLQPTPTPTTPTPTPTTPTPTPTSGPAGCQVLWGVNQWNTGFTANVTVKNTSSAPVDGWTLTFSFPSGQQVTQAWSSTVTQSGSAVTVRNAPWNGSIPAGGTAQFGFNGSHTGTNAAPTAFSLNGTPCTVG,binding of the fusion protein to cellulose,[4],strong and difficult to reverse
same,neutralization of activity by anti-SLF neutralizing polyclonal antibodies,"[3]; 0.6 nM SLF-CBD, in solution",neutralized
same,distribution of activity between BMCC and supernatant after Factor Xa cleavage,[3],the bulk of the activity was found in the supernatant
same,distribution of activity between BMCC and supernatant after Factor Xa cleavage,[3]; listed as SLF/CBD,the activity was no longer associated with the BMCC
same,SLF-CBD concentration at maximum stimulatory activity,[3]; BMCC constant at 1 μg/ml (1.22 cm^2/ml),about 2000 pM
same,ED50 (protein concentration for half maximal response) in presence vs absence of BMCC,[3]; [6],decrease
same,total cell proliferation in presence vs absence of BMCC,[3]; [6],increase
same,effect of presence of BMCC on activity,[3]; [6],clearly more active in the presence of BMCC
same,BMCC concentration at maximum activity,"[3]; SLF-CBD held constant at 1500 pM, BMCC varied",44 µg/mL
same,distribution of activity between BMCC and supernatant,[3],the bulk of the activity was associated with the BMCC; also recorded: most of the activity was associated with the BMCC particles
same,"potency when immobilized on cellulose vs in solution (maximum proliferative response, specific activity)",[3],significantly more potent; also recorded: to a greater extent than non-immobilized steel factor
same,"proliferative activity in solution (MTT), compared with control SLF",[3],similar
same,ED50 of soluble fusion protein vs control protein,[3]; soluble form,identical
same,maximum cell density generated vs control protein,[3]; soluble form,not quite as great
same,fraction bound to reconstituted cellulose surface (activity on plate vs supernatant),[5]; cellulose coated microtiter plate,essentially all
same,proliferative activity after repeated use of the same surface,[5]; three consecutive rounds of 48 h cell culture,no loss in proliferative activity; also recorded: no loss of proliferative activity; also recorded: without loss of growth-stimulating activity
"CBD: recombinant cellulose binding domain of Cex, negative control (protein) SGPAGCQVLWGVNQWNTGFTANVTVKNTSSAPVDGWTLTFSFPSGQQVTQAWSSTVTQSGSAVTVRNAPWNGSIPAGGTAQFGFNGSHTGTNAAPTAFSLNGTPCTVG","proliferative activity in solution (MTT), compared with control SLF",[3],did not stimulate the proliferation
